The values that follow come from patent US20210355194A1.

Conditions in all cases: remark: other sources report otherwise
Experiment [1] concerns the target T1, CV S-protein construct 6 trimer TP31001F (SARS-CoV-2), P0DTC2. In words: SPR. (In general: In SPR one partner is held on a chip, and binding of the other changes the refractive index at the surface.)
Experiment [2] concerns the target T1, CV S-protein construct 6 trimer …. Nature of the experiment: SPR. This is another data set of the same source.
For experiment [3], the target named is SARS-COV2-S1 RBD (mouse IgG2Fc tag) (SARS-CoV-2), P0DTC2. Nature of the experiment: FACS, S1 RBD-mFc on Vero E6 (ACE2). (In general: A flow cytometer gives signals particle by particle.)
Experiment [4] shares this target. In words: column not explained; likely FACS, S1 RBD on Vero E6.
Experiment [5] shares this target. Nature of the experiment: FACS, blocks S1 RBD-mFc binding to ACE2 on Vero E6.

B1: variant 6-9 (Fc fusion)
VHH: EVQLVESGGGLVQPGGSLRLSCAASGFTFDYYAMGWFRQAPGKEREFVSAIDSEGRTSYADSVKGRFTISADNSKNTAYLQMNSLKPEDTAVYYCARWGPFDIWGQGTLVTVSS
The Kd is a measure of binding affinity in units of concentration. With B1, the Kd in experiment [1] and in experiment [2] was 900 pM in each case.

B2: variant 6-63 (Fc fusion)
VHH: EVQLVESGGGLVQPGGSLRLSCAASGQTFNMGWFRQAPGKEREFVAAIGSGGSTSYADSVKGRFTISADNSKNTAYLQMNSLKPEDTAVYYCWRLGNDYFDYWGQGTLVTVSS
For orientation: IC50 means the concentration at which inhibition is half-maximal. Lower therefore signals greater potency in that assay. The molecule B2 returned a Competition Factor in experiment [3] of 7.76. The molecule also yielded an MFI Fold Decrease in experiment [4] of 7.76 fold. Also, the half-maximal inhibitory concentration (IC50) in experiment [5] worked out at 740 pM. For the same molecule, the Kd in experiment [1] and in experiment [2] was 300 pM in each case.
